# Experimental data: PMC5389675
# T1: ETV4 337-436 E404K (Homo sapiens, UniProt P43268 337-436, E404K)
# T1 sequence: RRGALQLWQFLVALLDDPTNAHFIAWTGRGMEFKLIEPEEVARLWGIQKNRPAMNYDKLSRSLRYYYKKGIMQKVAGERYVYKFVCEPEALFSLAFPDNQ
# What was measured:
# Experiment in all cases: EMSA
# ETV4 FL K260ac = ETV4 FL K260ac (Homo sapiens, UniProt P43268 1-484)
# ETV4 337-436 F428A/F432A = ETV4 337-436 F428A/F432A (Homo sapiens, UniProt P43268 337-436, F428A;F432A)
# ETV4 FL E425K = ETV4 FL E425K (Homo sapiens, UniProt P43268 1-484, E425K)
# Chain of ETV4 FL E425K (P43268 whole entry E425K): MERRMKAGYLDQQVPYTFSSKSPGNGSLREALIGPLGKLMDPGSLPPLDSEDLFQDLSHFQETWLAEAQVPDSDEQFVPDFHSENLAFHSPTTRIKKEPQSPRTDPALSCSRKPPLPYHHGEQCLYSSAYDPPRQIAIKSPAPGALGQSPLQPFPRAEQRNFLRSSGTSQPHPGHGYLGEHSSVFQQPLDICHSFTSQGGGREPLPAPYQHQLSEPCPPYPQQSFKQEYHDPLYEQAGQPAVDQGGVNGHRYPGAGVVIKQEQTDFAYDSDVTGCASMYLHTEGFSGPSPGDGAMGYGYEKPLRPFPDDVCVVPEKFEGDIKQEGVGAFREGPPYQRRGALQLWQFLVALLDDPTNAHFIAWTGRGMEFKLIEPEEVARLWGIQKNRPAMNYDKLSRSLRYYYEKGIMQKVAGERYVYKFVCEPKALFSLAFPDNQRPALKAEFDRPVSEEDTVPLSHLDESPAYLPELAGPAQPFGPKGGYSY
# ETV4 FL F428A/F432A = ETV4 FL F428A/F432A (Homo sapiens, UniProt P43268 1-484, F428A;F432A)
# Chain of ETV4 FL F428A/F432A (P43268 whole entry F428A/F432A): as the sequence (P43268 whole entry E425K) above, with K425E, F428A, F432A counted along it
# ETV4 337-436 E425K = ETV4 337-436 E425K (Homo sapiens, UniProt P43268 337-436, E425K)
# ETV4 FL E423K = ETV4 FL E423K (Homo sapiens, UniProt P43268 1-484, E423K)
# Chain of ETV4 FL E423K (P43268 whole entry E423K): as the sequence (P43268 whole entry E425K) above, with E423K, K425E counted along it
# ETV4 337-436 E423K = ETV4 337-436 E423K (Homo sapiens, UniProt P43268 337-436, E423K)
# ETV4 FL I407A/L430A = ETV4 FL I407A/L430A (Homo sapiens, UniProt P43268 1-484, I407A;L430A)
# Chain of ETV4 FL I407A/L430A (P43268 whole entry I407A/L430A): as the sequence (P43268 whole entry E425K) above, with I407A, K425E, L430A counted along it
# ETV4 FL L430A = ETV4 FL L430A (Homo sapiens, UniProt P43268 1-484, L430A)
# Chain of ETV4 FL L430A (P43268 whole entry L430A): as the sequence (P43268 whole entry E425K) above, with K425E, L430A counted along it
# ETV4 L430M = ETV4 L430M (Homo sapiens, UniProt P43268 1-484, L430M)
# Chain of ETV4 L430M (P43268 whole entry L430M): as the sequence (P43268 whole entry E425K) above, with K425E, L430M counted along it
# ETV4 337-484 = ETV4 337-484 (Homo sapiens, UniProt P43268 337-484)
# Chain of ETV4 337-484 (P43268 337-484): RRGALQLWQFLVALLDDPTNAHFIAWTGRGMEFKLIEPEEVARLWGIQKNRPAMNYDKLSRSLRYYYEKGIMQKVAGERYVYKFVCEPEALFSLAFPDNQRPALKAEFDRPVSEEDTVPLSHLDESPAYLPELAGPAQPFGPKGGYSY
# ETV4 337-436 E404K = biological target: T1, ETV4 337-436 E404K
# ETV4 FL E404K = ETV4 FL E404K (Homo sapiens, UniProt P43268 1-484, E404K)
# Chain of ETV4 FL E404K (P43268 whole entry E404K): as the sequence (P43268 whole entry E425K) above, with E404K, K425E counted along it
# ETV4 FL K226ac = ETV4 FL K226ac (Homo sapiens, UniProt P43268 1-484)
# Chain of ETV4 FL K226ac (P43268 whole entry): as the sequence (P43268 whole entry E425K) above, with K425E counted along it
# Chain of ETV4 FL K260ac (P43268 whole entry): as the sequence (P43268 whole entry E425K) above, with K425E counted along it
binder,measurement,setting,value
27-mer consensus ETS duplex (dsDNA) DNA 1: TCGACGGCCAAGCCGGAAGTGAGTGCC DNA 2: TCGAGGCACTCACTTCCGGCTTGGCCG,Kd,ETV4 FL K260ac,0.51 ± 0.03 nM
same,binding result,ETV4 337-436 F428A/F432A,binds
same,binding result,ETV4 FL E425K,binds
same,binding result,ETV4 FL F428A/F432A,binds
same,binding result,ETV4 337-436 E425K,binds
same,binding result,ETV4 FL E423K,binds
same,binding result,ETV4 337-436 E423K,binds
same,binding result,ETV4 FL I407A/L430A,binds
same,binding result,ETV4 FL L430A,binds
same,binding result,ETV4 L430M,binds
same,Kd,ETV4 337-484,0.11 ± 0.02 nM
same,binding result,ETV4 337-436 E404K,binds
same,binding result,ETV4 FL E404K,binds
same,Kd,ETV4 FL K226ac,0.3 ± 0.06 nM
